Results taken from article PMC5903968 (FEBS letters, 2018).

Columns and labels:
Test in all cases: enzyme inhibition assay
[1] = biological target: MMP-10 catalytic domain (MMP-10CAT) (UniProt P09238 99-263)
[2] = biological target: MMP-14 catalytic domain (MMP-14CAT) (UniProt P50281 114-287)
[3] = biological target: T1, human MMP-9 catalytic domain (MMP-9CAT), residues 107-215, 391-443 (human, UniProt P14780 107-215; P14780 391-443)
T1 chain (looked up): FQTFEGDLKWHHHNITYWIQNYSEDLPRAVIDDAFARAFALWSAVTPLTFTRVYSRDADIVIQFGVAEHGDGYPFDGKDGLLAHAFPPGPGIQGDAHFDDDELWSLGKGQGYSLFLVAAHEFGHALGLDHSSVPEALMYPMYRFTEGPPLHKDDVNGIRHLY

[4] = biological target: T2, MMP-1 catalytic domain (MMP-1CAT) (UniProt P03956 100-269)
T2 sequence (looked up): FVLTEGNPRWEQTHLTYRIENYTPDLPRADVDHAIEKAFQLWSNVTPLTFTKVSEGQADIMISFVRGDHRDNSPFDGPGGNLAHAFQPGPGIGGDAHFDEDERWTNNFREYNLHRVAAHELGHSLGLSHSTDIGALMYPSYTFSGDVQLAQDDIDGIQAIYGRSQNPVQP

MMP-10 catalytic domain (MMP-10CAT), sequence (P09238 99-263): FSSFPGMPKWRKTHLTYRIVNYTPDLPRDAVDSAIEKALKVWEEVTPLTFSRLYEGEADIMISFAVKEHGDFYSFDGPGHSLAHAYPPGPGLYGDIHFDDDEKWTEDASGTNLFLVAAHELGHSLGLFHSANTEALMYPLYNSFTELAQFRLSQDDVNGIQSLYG

B1: N-terminal domain of TIMP-2 (N-TIMP2), wild type (domain or fragment, UniProt P16035 27-152, looked up)
chain: CSCSPVHPQQAFCNADVVIRAKAVSEKEVDSGNDIYGNPIKRIQYEIKQIKMFKGPEKDIEFIYTAPSSAVCGVSLDVGGKKEYLIAGKAEGDGKMHITLCDFIVPWDTLSTTQKKSLNHRYQMGC
Q: Which Ki [1] does the source give for B1 here?
A: 4.3 nM

Q: What about the Ki [2] of the same binder?
A: 2.52 nM

Q: And the Ki [3]?
A: 0.12 nM

Q: What about the Ki [4] of the same binder?
A: 0.25 nM
